Patent US20190015361A1 (published 2019)
Blank lines part the entries; values can stand above or below the binder they belong to.

Legend:
[1] = target: T1, Aβ40 (t=0 days) (UniProt P05067 672-711); assay: SPRi, Aβ forms spotted on chip, ovalbumin injected
T1 construct: domain: Aβ40; Dissolved in PBS and spotted at 20 µM on the SPRi chip immediately after solubilization; mainly low-MW oligomers by CE; also called Aβ40 low-MW oligomers; Aβ40 solubilized in PBS

[2] = target: T2, Aβ42 (t=0 days) (human, UniProt P05067 672-713); assay: SPRi, Aβ forms spotted on chip, ovalbumin injected
T2 construct: domain: Aβ42 (residues 1-42 of the Aβ peptide); HFIP / CH3CN-Na2CO3-NaOH preparation, diluted to 20 µM in phosphate buffer and spotted on the SPRi chip immediately; mainly low-MW oligomers by CE; also called Aβ42 low-MW oligomers
T2 sequence (P05067 672-713 limits assumed): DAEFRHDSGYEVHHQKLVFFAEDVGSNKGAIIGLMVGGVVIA

[3] = target: T3, Aβ42 (t=24 days) (human, UniProt P05067 672-713); assay: SPRi, Aβ forms spotted on chip, ovalbumin injected
T3 construct: domain: Aβ42 (residues 1-42 of the Aβ peptide); enriched in high-MW oligomers by CE; also called Aβ42 high-MW oligomers
T3 sequence (P05067 672-713 limits assumed): as above

[4] = target: T3, Aβ42 (t=24 days); assay: SPRi, Aβ spotted on chip at 20 µM, LL-37 injected 1-100 µM, nonlinear fit of response at equilibrium

T1 sequence (P05067 672-711 limits assumed): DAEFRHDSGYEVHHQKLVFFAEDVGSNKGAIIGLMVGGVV

binding result [1]: no binding (tested: 10 µM)
binding result [2]: no binding (tested: 10 µM)
binding result [3]: no binding (tested: 10 µM)
B1: Ovalbumin (Sigma-Aldrich, A5503) (other, UniProt P01012 2-386, looked up)
chain: GSIGAASMEFCFDVFKELKVHHANENIFYCPIAIMSALAMVYLGAKDSTRTQINKVVRFDKLPGFGDSIEAQCGTSVNVHSSLRDILNQITKPNDVYSFSLASRLYAEERYPILPEYLQCVKELYRGGLEPINFQTAADQARELINSWVESQTNGIIRNVLQPSSVDSQTAMVLVNAIVFKGLWEKAFKDEDTQAMPFRVTEQESKPVQMMYQIGLFRVASMASEKMKILELPFASGTMSMLVLLPDEVSGLEQLESIINFEKLTEWTSSNVMEERKIKVYLPRMKMEEKYNLTSVLMAMGITDVFSSSANLSGISSAESLKISQAVHAAHAEINEAGREVVGSAEAGVDAASVSEEFRADHPFLFCIKHIATNAVLFFGRCVSP
notes: Negative control analyte in SPRi, injected at 10 µM; also called non-correlated protein; negative control sample

Ka [4]: 49200 M⁻¹
Kd [4]: 20.3 µM
B2: human cathelicidin peptide LL-37 (peptide, UniProt P49913 134-170, looked up)
peptide: LLGDFFRKSKEKIGKEFKRIVQRIKDFLRNLVPRTES
notes: range 134-170; Synthetic peptide; from Innovagen for SPRi/TEM/CD, from AnaSpec for the cell culture work; also called cathelicidin LL-37
